Measurements: patent US20040146968A1

Experiments:
[1] = target: sDR5 protein (extracellular domain of TRAIL receptor DR5, residues 1-130) (human); assay: cell-based or functional assay
[2] = target: sDR5 protein (extracellular domain of TRAIL receptor DR5, residues 1-130) (human); assay: SPR, BIAcore 2000, sDR5 immobilised
[3] = target: sDR5 protein (extracellular domain of TRAIL receptor DR5, residues 1-130) (human); assay: SPR, BIAcore 2000, sDR5 amine-coupled to chip, TRAIL 300-900 nM as analyte, 1:1 model, 25° C., apparent KD

**Q.** Which cytotoxic activity on human SK-HEP-1 hepatoma cells (MTT viability, concentration giving 50% cell death) [1] does the source give for “TRAIL deletion mutant protein containing the deletion of residues 132-135 in the AA″ loop (ligand)” here?
**A.** Its cytotoxic activity on human SK-HEP-1 hepatoma cells (MTT viability, concentration giving 50% cell death) is over 1000 ng/mL.

**Q.** And the fold change of apparent KD against wild-type TRAIL [2]?
**A.** The fold change of apparent KD against wild-type TRAIL was 18 fold.

**Q.** What about the Kd [3] of the same substance?
**A.** Its Kd is 294 nM.

**Q.** With “wild-type TRAIL protein (human, residues 114-281) (ligand)” as the substance, how does the cytotoxic activity on human SK-HEP-1 hepatoma cells (MTT viability, concentration giving 50% reduction of viability) [1] read?
**A.** Its cytotoxic activity on human SK-HEP-1 hepatoma cells (MTT viability, concentration giving 50% reduction of viability) is 50 ng/mL.

**Q.** What about the Kd [3] of the same substance?
**A.** The Kd was 15.9 nM.
